This note sets out measurements from ChEMBL document CHEMBL2073821, “Immunohistochemical and functional characterization of pH-dependent intestinal absorption of weak organic acids by the monocarboxylic acid transporter MCT1” (J Pharm Pharmacol, 1999).

Substrate in data set [1]: C[C@H](O)C(=O)O
Kind of data set: (§1) TP_TRANSPORTER: uptake in MCT1-expressing MDA-MB231 cells. To be noted: MDA-MB-231. It is filed as functional, cell-based.

Substrate in data set [2]: O=C(O)c1ccccc1
The data set is described as §1. To be noted: MDA-MB-231. It is filed as functional, cell-based.

B1: Monocarboxylate transporter 1 (Rattus norvegicus), P53987 (protein)
chain: MPPAIGGPVGYTPPDGGWGWAVVVGAFISIGFSYAFPKSITVFFKEIEIIFSATTSEVSWISSIMLAVMYAGGPISSILVNKYGSRPVMIAGGCLSGCGLIAASFCNTVQELYFCIGVIGGLGLAFNLNPALTMIGKYFYKKRPLANGLAMAGSPVFLSTLAPLNQAFFGIFGWRGSFLILGGLLLNCCVAGSLMRPIGPQQGKVEKLKSKESLQEAGKSDANTDLIGGSPKGEKLSVFQTVNKFLDLSLFTHRGFLLYLSGNVVMFFGLFTPLVFLSNYGKSKHFSSEKSAFLLSILAFVDMVARPSMGLAANTRWIRPRVQYFFAASVVANGVCHLLAPLSTTYVGFCIYAGVFGFAFGWLSSVLFETLMDLVGPQRFSSAVGLVTIVECCPVLLGPPLLGRLNDMYGDYKYTYWACGVILIIAGLYLFIGMGINYRLVAKEQKAEEKKRDGKEDETSTDVDEKPKKTMKETQSPAPLQNSSGDPAEEESPV
As usually defined, the Km is the concentration of substrate that gives half-maximal velocity. Take B1: the Km in data set [1] was determined as 2.28 mM; in data set [2], 3.05 mM.
